This note sets out measurements from article PMC6399207.

Assay [1] addresses Acinetobacter baumannii glutamyl-tRNA reductase (HemA), N-terminal His-tagged (Acinetobacter baumannii (strain ATCC 19606)). Description: SEC; individually purified protein alone; Superdex 200 10/300 GL, room temperature, 50 mM Na phosphate pH 8.0, 100 mM NaCl; calibrated with ferritin, aldolase, conalbumin, ovalbumin. Background: SEC sorts molecules by how far they enter the pores of the column.

Assay [2] concerns the target Acinetobacter baumannii glutamate-1-semialdehyde-2,1-aminomutase (HemL), N-terminal His-tagged (Acinetobacter baumannii (strain ATCC 19606)). Described as above.
Assay [3] concerns the target Acinetobacter baumannii glutamyl-tRNA reductase (HemA), N-terminal His-tagged (Acinetobacter baumannii (strain ATCC 19606)). Description: SEC; sample of AbHemA and AbHemL co-expressed (pET28hemL_(6xHis)-hemA_(6xHis)) and co-purified on NiNTA; Superdex 200 10/300 GL, room temperature, 0.5 mL/min, 50 mM Na phosphate pH 8.0, 100 mM NaCl; fractions checked by SDS-PAGE; also after 16 h at 4°C without or with 0.1 M sodium citrate, and of a sample grown and purified with citrate.

Where “and” joins values, the source holds several entries; their conditions need not be identical. Equal entries are not always repeated.

Turning to “Acinetobacter baumannii glutamyl-tRNA reductase (HemA), N-terminal His-tagged (enzyme)”, in assay [1], the stoichiometry N is 4 and 2.

“Acinetobacter baumannii glutamate-1-semialdehyde-2,1-aminomutase (HemL), N-terminal His-tagged (enzyme)” gave a stoichiometry N in assay [2] of 2. In addition, the fold increase of the 200 kDa complex fraction with 0.1 M sodium citrate against without citrate in assay [3] turned out to be 4 fold.

As usually defined, the stoichiometry N is the number of molecules, sites or subunits per partner or assembly.
